{"source": "patent US10494417B2", "about": "“Peptide inhibitors of BCR-ABL oligomerization” (University of Utah Research Foundation, priority 2014, dated 2019)", "molecules": {"B1": {"name": "CCmut3: modified Bcr-Abl coiled-coil domain (residues 1-72) with mutations C38A, K39E, S41R, L45D, E48R, Q60E (protein)", "chain": "MVDPVGFAEAWKAQFPDSEPPRMELRSVGDIEQELERAEARIRRDEQRVNQERFRMIYLETLLAKEKKSYDR"}}, "key": {"Ba/F3-p210-T315I cells": {"test_system": "Ba/F3-p210-T315I cells", "experiment": "Colony forming assay of Ba/F3 BCR-ABL1 T315I cells", "format": "cell-based, mouse", "conditions": "for colony formation, in words: CCmut3 gene delivery (transfection; b502 lentiviral infection) vs EV; for reduction in CFCs / colony forming ability: CCmut3 vs EV", "protocol": "(§1) Both EGFP and EGFP-CC^mut3 were transfected into separate groups of cells on day 0. One day following transfection, 1.0×10^6 cells per treatment group were collected and re-suspended in 1.0 mL of PBS. Through serial dilutions, 1.0×10^3 cells in IMDM (Isocove's modified Dulbecco's media) with 2% FBS were seeded into methylcellulose medium in the absence of cytokines (MethoCult H4230 for K562 cells and MethoCult M3234 for p210 and p210-T315I cells) or in the presence of cytokines (MethoCult GF M3434 for parental Ba/F3 cells). Ponatinib was then added in the correct molar amounts (0, 100 pM, 1 nM, or 10 nM) to the methylcellulose medium. Colonies formed were counted after 7 days of incubation. All reagents were purchased from Stem Cell Technologies, Vancouver, BC, Canada. Assay was run three separate times (n=3) in duplicate.\nBriefly, mCherry-positive Ba/F3 cells were re-suspended in IMDM with 2% FBS (Stem Cell Technologies) at a concentration of 10,000 cells/mL. Three hundred microliters of this dilution was added to 3 mL of Methocult media (M3434—Ba/F3 p210 wild-type and mutant lines or M3234—Ba/F3 parental, Stem Cell Technologies). Approximately 1100 cells, or 1.2 mL, were seeded per dish in duplicate for each transfection. Colonies were counted 7 days later in an area of 100 μm^2 per dish.\nAll cells were plated with or without the indicated TKI in three or more independent experiments. Plates were incubated at 37° C. in a 5% CO2 humidified incubator. Colonies were counted 7-14 days later in an area of 50 μm2 per dish using an inverted microscope."}, "K562 cells": {"test_system": "K562 cells", "experiment": "Colony forming assay of transfected K562 cells", "format": "cell-based, human", "conditions": "for colony formation (transformative ability), in words: construct delivered as a gene by transfection, vs EGFP (and WT) control", "protocol": "as §1\nBriefly, K562 or Ba/F3-p210 cells were transfected according to the protocol above. One day following transfection, 1.0×10^6 cells per transfection group were collected and re-suspended in sterile PBS. […] Finally, 1.1 mL of cell/methylcellulose mixture was seeded in duplicate and allowed to grow at 37° C. and 5% CO2 for 7 days. Colony formation was assessed by counting colonies in two 200 μm2 areas on the plate. Experiments were performed once in duplicate (n=1 in duplicate). All kit reagents and media were purchased from Stem Cell Technologies (Vancouver, BC, Canada)."}, "[1]": {"test_system": "Ba/F3 cells expressing BCR-ABL1E255V", "experiment": "Annexin V/7-AAD apoptosis assay in Ba/F3 BCR-ABL1 E255V cells", "format": "cell-based, mouse", "conditions": "72 h, CCmut3 vs EV", "protocol": "(§2) For analysis of apoptosis and cell death, cells were pelleted and resuspended in Annexin V-binding buffer (BD Biosciences), stained with anti-Annexin V-APC (BD Biosciences or Life Technologies) and 7-AAD (BD Biosciences or Life Technologies) and analyzed on a BD FACSCanto flow cytometer. In addition to the APC and 7-AAD channels, GFP- and mCherry-positive cells were also recorded.\nas §2, with “apoptosis and necrotic cell death,” for “apoptosis and cell death,”, “anti-Annexin V-APC and 7-AAD” for “anti-Annexin V-APC (BD Biosciences or Life Technologies) and 7-AAD”"}, "[2]": {"target": "T1, isolated CC domain from Bcr-Abl (Homo sapiens, UniProt P11274, C38A/E48R/K39E/L45D/Q60E/S41R)", "T1 construct": "using the isolated CC domain from Bcr-Abl instead of the full-length protein; expressed in transfected cells", "T1 sequence (P11274 1-72 C38A/K39E/S41R/L45D/E48R/Q60E)": "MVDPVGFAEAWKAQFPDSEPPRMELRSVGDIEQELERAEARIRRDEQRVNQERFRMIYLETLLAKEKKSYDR", "experiment": "Mammalian two-hybrid assay of coiled-coil dimerization", "format": "cell-based", "conditions": "CC^mut3 with CC^mut3", "protocol": "As mentioned above, the design process of CC^mut3 involved favoring hetero-dimerization with Bcr-Abl while avoiding homo-dimerization with another CC^mut3 molecule. Thus, a mammalian two-hybrid assay was performed to measure the likelihood of each scenario, using the isolated CC domain from Bcr-Abl instead of the full-length protein (for ease of use)."}}, "note": "Several values for one entry are separate records, joined by “and”; a condition that tells them apart may be missing. Equal values may be shown once. Entries after “also recorded” stand apart in the source; their conditions may differ.", "data": [{"molecule": "B1", "values": [{"measurement": "reduction of transformative ability compared to EGFP control", "setting": "Ba/F3-p210-T315I cells; CC^mut3 alone, Ba/F3-p210-T315I", "value": "~40", "unit": "%"}, {"measurement": "colony formation, in words", "setting": "Ba/F3-p210-T315I cells", "value": "significantly fewer colonies per unit area"}, {"measurement": "colony formation, in words", "setting": "Ba/F3-p210-T315I cells; listed as CC^mut3", "value": "Inhibition in colony formation"}, {"measurement": "reduction in CFCs / colony forming ability", "setting": "Ba/F3-p210-T315I cells", "value": "> 10", "unit": "fold"}, {"measurement": "reduction in CFCs / colony forming ability", "setting": "Ba/F3-p210-T315I cells; listed as CC^mut3", "value": "more than 10 fold"}, {"measurement": "colony formation, of EGFP control", "setting": "K562 cells; 7 days after seeding, normalized to EGFP control, n=1 in duplicate", "value": "approximately 20%"}, {"measurement": "decrease in the amount of colonies formed compared to EGFP", "setting": "K562 cells; CC^mut3 alone, no ponatinib, 7 days", "value": 3, "unit": "fold"}, {"measurement": "colony formation (transformative ability), in words", "setting": "K562 cells", "value": "showed inhibitory activity"}, {"measurement": "colony formation (transformative ability), in words", "setting": "K562 cells; listed as CC^mut3", "value": "inhibits colony formation; also recorded: significantly greater inhibition"}, {"measurement": "apoptosis, in words", "setting": "[1]", "value": "increase of apoptosis"}, {"measurement": "increase in apoptosis", "setting": "[1]", "value": "6-8 fold and > 5 fold"}, {"measurement": "apoptosis, in words", "setting": "[1]; listed as CC^mut3", "value": "significant shift toward the apoptotic fraction"}, {"measurement": "increase in apoptosis", "setting": "[1]; listed as CC^mut3", "value": "6-8 fold"}, {"measurement": "homo-oligomerization", "setting": "[2]", "value": "strongly disfavoring homo-oligomerization"}]}]}
